From the DeepSol protein solubility set

assay: soluble on expression in E. coli; label from the status in PepcDB or PDB records

Q: For “MSLKITRITVYQVDLPLEHPYWLSGGRLKFELLDATLVKLETDAGITGWGEGTPWGHTYVPAHGPGIRAGIETMAPFVLGLDPRRLLDVERAMDIALPGHLYAKSPIDMACWDIAGQAAGLPIADLMGGGSRTPRPIASSVGAKSVEETRAVIDRYRQRGYVAHSVKIGGDVERDIARIRDVEDIREPGEIVLYDVNRGWTRQQALRVMRATEDLHVMFEQPGETLDDIAAIRPLHSAPVSVDECLVTLQDAARVARDGLAEVFGIKLNRVGGLTRAARMRDIALTHGIDMFVMATGGSVLADAEALHLAATIPDHACHAVWACQDMLTVDIAGGRGPRNIDGHLHLPETPGLGVHPDEDALGDPVAVYSEGHHHHHH”, which “soluble on expression in E. coli” value is on record?
A: soluble

Q: Which “soluble on expression in E. coli” value does the source give for “PLLIKNGEIITADSRYKADIYAEGETITRIGQNLEAPPGTEVIDATGKYVFPGFIDPHVHIYLPFMATFAKDTHETGSKAALMGGTTTYIEMCCPSRNDDALEGYQLWKSKAEGNSYCDYTFHMAVSKFDEKTEGQLREIVADGISSFKIFLSYKNFFGVDDGEMYQTLRLAKELGVIVTAHCENAELVGRLQQKLLSEGKTGPEWHEPSRPEAVEAEGTARFATFLETTGATGYVVHLSCKPALDAAMAAKARGVPIYIESVIPHFLLDKTYAERGGVEAMKYIMSPPLRDKRNQKVLWDALAQGFIDTVGTDHCPFDTEQKLLGKEAFTAIPNGIPAIEDRVNLLYTYGVSRGRLDIHRFVDAASTKAAKLFGLFPRKGTIAVGSDADLVVYDPQYRGTISVKTQHVNNDYNGFEGFEIDGRPSVVTVRGKVAVRDGQFVGEKGWGKLLRREPMYF” here?
A: soluble

Q: Which “soluble on expression in E. coli” value does the source give for “MQLEELINQHYSKLNDNDFHILKYILNHKHTCYHLGIDALAKACSVSRSSILRLAQKLGFSGYSEFRVFLKWEDQPEEGESMSFEKLLDDIEANLKFLRTKDMTDMCQLIDAADRIFVYGSGNAQKICARDLQRMFIPRHRYLILIEDTNEFNLMRDDFKVNDLFIIISLSGETPELIPQARMLSAKGIPFISITNLKNNVLAQLTPHNLYATSKPVTLSDRTEIVAFAPFFLVGEALFRAYVDYKEAEKNDNEMAGDPLEHHHHHH” here?
A: soluble

Q: Which “soluble on expression in E. coli” value does the source give for “MSLDAKLRYKAKKIKIVFFDIDDTLRNSKTGFIPTTIPTVFKQLREKGILTGIASGRGIFGVVPEIRDLKPDFFVTLNGAYIEDKKGQVIYQHQIEKSDVEEYISWAKQEGIEYGLVGSHDAKLSTRTDMMSEAINPIYPDLDVDPGFHEKEDIYQMWTFEDKGDDLHLPDSLSDKLRMVRWHQHSSDIVPISGSKATGVEKVVEHLGLKPEKVMVFGDGLNDLELFDYAGISVAMGISHDKIKEKADYITKTLEEDGIFDALEVFGMVEKELHFPQVDIETVEGPLATIKTNHGDLRIKLFPEHAPKTVANFVSLSKDGYYDGVIFHRIIKDFMIQGGDPTGTGMGGESIYGESFEDEFSEELYNIRGALSMANAGPNTNGSQFFIVQNQHLPYSKKEITRGGWPEPIAEIYANQGGTPHLDRRHTVFGQLADEASYAVLDVIAAVETGAMDKPVEDVVIETIEIEDEGHHHHHH” here?
A: soluble

Q: Which “soluble on expression in E. coli” value does the source give for “EIEMTQSPSSLSASVGDRVTISCRASQRINTYLNWYQHKPGKAPKLLIYAASSLQSGVPSRFSGSGYGTDFTLTISSLQPEDFASYYCQESLSASYTFGQGTKVEIKRTVAAPSVFIFPPSDEQLKSGTASVVCLLNNFYPREAKVQWKVDNALQSGNSQESVTEQDSKDSTYSLSSTLTLSKADYEKHKVYACEVTHQGLSSPVTKSFNRGEC” here?
A: soluble

Q: For “MAVDWPRGGLMPRLRRLEDLLPHIREGRYRLGPHAAKHMLQEGFREQDILSALLWGRELAIYPEDERMLVLGYMVFPPRLRLPLHVVLEYSTPRHVDIVTAFIPREPYRVYSRARLAALLRFDGALEEVRWTGPKHLYPPWD”, which “soluble on expression in E. coli” value is on record?
A: soluble

Q: For “LTRFSAGYGSDSMLEASADIGRRFGPDDSVGIRINAAQRGGETAIDGERTRTTVFALGLDWRGERARLSADIGYQDNRLKRARPNVTLAGDAAKVPGAPDAGSNYAQPWSYSNERDVFGTLRGEYDFNDRITGWAAYGMRQSKEENSLANLNGVNGAGQGKFYRFDNAREDTVNTGEIGLRAKARTGPVGHELVASASYFDLEKKNAYVMDFFNQFDTSIYDPVSYAKPAISSTAFRGNDMDDPAKQGVIRLASYALGDTMSFFDDKVLLTAGIRHQRLYQRDYSYDTGIGGTPYEQSHNSPAAGLVVRVTPQVSLYANYIEALSAGDTAPQTANGLPVVNHGESLAPYVSKQKEVGVKFEHDGLGGGLALFSTDKPRGFVGDDQVFRASGKDRHRGVELTTYGELTRSVRVLGGLTWLDAKQLSTGNAATDGKRVIGVPRFQANLGVEWDIPGVQGLTVDGRVVYTGSSYADAANTLEVPGWTRLDAGLRYMTDIGGHLVTWRARVENIANRDYWSSVGGYPGNGYLVLGGPRTFTLSASMEF”, which “soluble on expression in E. coli” value is on record?
A: not soluble

Q: For “GSHMSRLLEDFRNQRYPNLQLRDLANHIVEFSQDQHGSRFIQQKLERATAAEKQMVFSEILAAAYSLMTDVFGNYVIQKFFEFGTPEQKNTLGMQVKGHVLQLALQMYGCRVIQKALESISPEQQQEIVHELDGHVLKCVKDQNGNHVVQKCIECVDPVALQFIINAFKGQVYSLSTHPYGCRVIQRILEHCTAEQTTPILDELHEHTEQLIQDQYGNYVIQHVLEHGKQEDKSILINSVRGKVLVLSQHKFASNVVEKCVTHATRGERTGLIDEVCTFNDNALHVMMKDQYANYVVQKMIDVSEPTQLKKLMTKIRKNMAAL”, which “soluble on expression in E. coli” value is on record?
A: soluble

Q: With “DAGQANDDALRVALQFKPVADFSPYSDDAVLNLRMGAVETLVTLDEDGKPKPVLAEKWEMKDDRTAVLTLRKDVSFHDGSKLTGEVVKNALDHALSATTRPKGLGKADLKVEATGESEVTITAPEADPILVQRLTDPGAAILSKDAYAGENPDPFNHGTGPFKLVKKESDGSVSAEAFADYWNGTPETSALKVSFIEDGAARANAFRAGDFDVIKGVPVVALPELSDAHVTDVHLPRATLLHLNAEKGVFADAKLRTAVAGAIKTDAIVDKIYEGKANKTEGSLFNLDAQWAQKAKPLAGAPADATIGKGKTVRLATWDSRAELPETANLIADQLRALGFNVDITVADYASLENRLLDGSFDAVIGSRSYMIGAGDPVAFLDTDFTCDGSYNLSRLCDPEIDKKIAAAKSEKDLDTRHKD” as the sequence, how does the “soluble on expression in E. coli” value read?
A: not soluble

Q: For “MSLSSASSKRSVMTLFSNKDDIYCHQVKIVLAEKGVLYENAEVDLQALPEDLMELNPYGTVPTLVDRDLVLFNSRIIMEYLDERFPHPPLMQVYPVSRAKDRLLMLRIEQDWYPTLAKAENGTEKEKTSALKQLKEELLGIAPIFQQMPYFMNEEFGLVDCYVAPLLWKLKHLGVEFTGTGSKAIKAYMERVFTRDSFLQSVGEAAPKNLMDDKEGHHHHHH”, which “soluble on expression in E. coli” value is on record?
A: soluble

Q: For “MSLQRPVMLLSDDDSEVRRLVYDSLDRLGCEMEEPDNGEQALAAFRRIQPEIVLLDLAMTQADAFELCASLHGARGGERVSILAVAGRGDLEGVRRAIDAGATDFLIHPVDVEMLGLRLSCGRRSAQTRERLSRNEERNRGLIKGIPHLVLQISKEGTVLDFEAPRDFDLRQFPDGLRGRRIQDVFFADAPYVIVRCIERVIETAESQVLEHNVRIGNDIHVYETRILPNAEGEPTVVMRDVTERRKMEKEGHHHHHH”, which “soluble on expression in E. coli” value is on record?
A: soluble

Q: Which “soluble on expression in E. coli” value does the source give for “MSQKTEQDDIPLADDDDTVTIISGGKTPRAAQPLPKEEPPEDPEEKARMITQVLELQNTLDDLSQRVESVKEESLKLRSENQVLGQYIQNLMSSSSVFQSSQPSRPKQ” here?
A: soluble

Q: Which “soluble on expression in E. coli” value does the source give for “MIEWQLAELIPHAGDMILIDQVLDFDEEQINTRLTVRADGLFNQPDGSLPAWLGIELMAQSVAAYAGCQARSKGEAVKLGFLLGSRKFDCNVARFPAGSELHIHAIRSLQDDSGMGVFECTLTGPDITALARLNVYCPPNTADYLAEGAPALEHHHHHH” here?
A: not soluble

Q: With “MAHHHHHHMEENNQVEKNKTNQLCFVKMLVNNLVAGSVIGKNGSIITSIENKTGCSLKLSPTNSYFPNTQERVLVLCGKQEQINNALLIILDKIRQITVQSFQDKQNMNTVPKYTCRIVIPKSAASAIIGKGGQQIKQLQDSTGAKIQISSREDGLNERIISIIGPFESISDTAIKVTNSIQNDPNLKDLLNVIYNKDTNMNGRSSLSQNFVNQVPLNGYVVPQQYGVFQHEQYMDVNMMNSLMRHSRDLFNLPCEISIQI” as the sequence, how does the “soluble on expression in E. coli” value read?
A: not soluble

Q: With “MSLGDSEIYVSLDIGTASVKVIIAEMADDRLNIIGVGNVESSGIKKGIIIDIHKTVESIKKAIEQAERMVGVEISQVIVGVVSSQVHLEACRGIVAVGSENREITDEDVWNVMDAAQVVPLSPEREIINTIPDQFVVDGLTGITDPRGMIGVRLEMEGTLITGSKTILHNTLRCVERAGLEISDIALQPLAEASISLSEDDKEFGTALVNVGAGTTTVSVFEQGRLTYTGVIPVGGDNITKDLSLGLNTSTANADRVKLDHGYAFYDDASPDEVFAIDVIGSDQKQHFTQVEVADIIEARMEEIFQLVVEELTRVGKTHLPGGYVLTGGSMAIPGAIDLAGKTLAAHVRLAIPDYIGVREPSFTTAVGLIKYAYQMVELEGRDVSSEGHHHHHH” as the sequence, how does the “soluble on expression in E. coli” value read?
A: soluble

Q: With “MSALAVALARQSESHADCPLFNDPYAQVFIDAALSRGCQLPSDETSERINGIANYASSRTKWFDEYFIAAGAHGLEQMVIVAAGLDARAWRLPWVAGTTLFEIDHPGVLKFKNEALHEHGESPSVSRYVPVPADLSDGWSERLRDAGFDVSEPTAWAVEGLLPYVADGPHLLFDRIHEISPAGSRLAVEAVGTGVADWLSTQGWQVTMIGAQELMTRYGRCGDHSDTDAGMDTVFVNATRTR” as the sequence, how does the “soluble on expression in E. coli” value read?
A: soluble

Q: With “MADYNIPHFQNDLGYKIIEIGVKEFMCVGATQPFDHPHIFIDMGSTDEKICPYCSTLYRYDPSLSYNQTNPTGCLYNPK” as the sequence, how does the “soluble on expression in E. coli” value read?
A: not soluble

Q: Which “soluble on expression in E. coli” value does the source give for “GMREEKIREALNAHWQASAAGDFDAEHDIYDDDAICDYPQSGERILGRMNLQALRSHHPGKPAGFEVRRIQGEGNLWITEYSISYNGRPAYTVSIMEFRNGKVVHETQYFSDPFEAPGWRSQWVQQIG” here?
A: soluble

Q: Which “soluble on expression in E. coli” value does the source give for “MSPILAKNIVYVAQIKGQITSYTYDQFDRYITIAEQDNAEAIIIELDTPGGRADAMMNIVQRIQQSKIPVIIYVYPPGASAASAGTYIALGSHLIAMAPGTSIGACRPILGYSQNGSIIEAPPKITNYFIAYIKSLAQESGRNATIAEEFITKDLSLTPEEALKYGVIEVVARDINELLKKSNGMKTKIPVNGRYVTLNFTNVEVRYLAPSFKDKLISYITDLEHHHHHH” here?
A: soluble

Q: Which “soluble on expression in E. coli” value does the source give for “MLQIIVPMAGAGSRFAVAGYTDPKPLIPVHGVPMIKVVIDNLTPDCPHRFIFICQAEQVAAYGLREKLNAWAPGCGIVELGGLTGGAACTVYAARHLINYDQQVMIANSDQYVDVDINAYLHAMNECDAAGLIMTMKASDPKWSFVGFDSQGHINRVVEKEVISDEATVGIYNFRSGGQLVSAIEAMVLKDLRVNGEFYVAPAYNELIEQGAKVIHYSIGAEGHGMYGLGIPVDLNLFLSLPLSRQAASGVGNLEHHHHHH” here?
A: not soluble

Q: Which “soluble on expression in E. coli” value does the source give for “MSLTDAETAVMPDRTNTSRDHAKRYVRHFLADFAKLDQEYPRTYPRMIVRGEGAYVIDEEGRRILDAGSHLGACQIGHGHPEVADRIHQQVRNIEFIALDAGISHVYAAALGERLAKMVLCDDPVFSFTNSGSESNELAFKIARQYHRRRGQPGRVKIFSRNGSYHGSTLATSAATGAAPFKEGFGPLPEGFIQGAQPSPGRCGHCGFNDACSLACLDDFERLIMAEGSETVAAVIAEPIAIPQAVKVPPPDYFVRLRKFCDDHGILLIIDEVVCGFGRTGRMFGAEHFGVHGDIVTFAKGLTSGYVPMGAVAVARHVEEVFKNAPLLHLNTYAGHPVACAAAMAVLDIMERERLVLHSARMEPILRRELQRLQNAVARVRYLSVIGLLSSVIVDISDRPDPDAVIRRVRNIAYDNGLLARVARDGALLSVHFYPPLVVAEQDIVAGVRALEIALRMIEGHHHHHH” here?
A: not soluble
